From IntAct's records for PubMed 31515488 come the findings set out here.

Sequences and labels used below:
B1: Microtubule-associated tumor suppressor candidate 2 (Homo sapiens), Q5JR59-3 (parent)
chain: MGHCCCKPYNCLQCLDKTNESALVKEKELSIELANIRDEVAFHTAKCEKLQKEKEELERRFEDEVKRLGWQQQAELQELEERLQLQFEAEMARLQEEHGDQLLSIRCQHQEQVEDLTASHDAALLEMENNHTVAITILQDDHDHKVQELMSTHELEKKELEENFEKLRLSLQDQVDTLTFQSQSLRDRARRFEEALRKNTEEQLEIALAPYQHLEEDMKSLKQVLEMKNQQIHEQEKKILELEKLAEKNIILEEKIQVLQQQNEDLKARIDQNTVVTRQLSEENANLQEYVEKETQEKKRLSRTNEELLWKLQTGDPTSPIKLSPTSPVYRGSSSGPSSPARVSTTPR
partner: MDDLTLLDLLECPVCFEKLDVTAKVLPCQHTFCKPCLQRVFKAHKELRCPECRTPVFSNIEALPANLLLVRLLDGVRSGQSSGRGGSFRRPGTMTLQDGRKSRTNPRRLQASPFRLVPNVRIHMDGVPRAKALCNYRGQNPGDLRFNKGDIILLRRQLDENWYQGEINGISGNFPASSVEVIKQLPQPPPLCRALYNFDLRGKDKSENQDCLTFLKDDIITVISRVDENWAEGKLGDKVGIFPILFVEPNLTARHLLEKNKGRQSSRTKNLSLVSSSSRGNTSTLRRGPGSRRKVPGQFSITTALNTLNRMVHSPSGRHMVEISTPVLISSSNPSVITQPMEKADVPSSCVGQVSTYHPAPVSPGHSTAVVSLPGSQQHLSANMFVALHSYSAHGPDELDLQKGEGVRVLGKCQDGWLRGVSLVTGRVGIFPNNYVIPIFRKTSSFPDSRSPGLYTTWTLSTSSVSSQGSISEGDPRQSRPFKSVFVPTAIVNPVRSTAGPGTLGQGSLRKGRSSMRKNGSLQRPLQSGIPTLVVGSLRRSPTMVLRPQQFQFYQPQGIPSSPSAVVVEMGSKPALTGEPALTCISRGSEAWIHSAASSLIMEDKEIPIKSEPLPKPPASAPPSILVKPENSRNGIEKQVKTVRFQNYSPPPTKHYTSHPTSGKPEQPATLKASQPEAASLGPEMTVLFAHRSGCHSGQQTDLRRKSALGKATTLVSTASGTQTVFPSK
B2: Charged multivesicular body protein 7 (Homo sapiens), Q8WUX9 (parent)
chain: MWSPEREAEAPAGGDPAGLLPPEWEEDEERMSFLFSAFKRSREVNSTDWDSKMGFWAPLVLSHSRRQGVVRLRLRDLQEAFQRKGSVPLGLATVLQDLLRRGELQRESDFMASVDSSWISWGVGVFLLKPLKWTLSNMLGDNKVPAEEVLVAVELLKEKAEEVYRLYQNSPLSSHPVVALSELSTLCANSCPDERTFYLVLLQLQKEKRVTVLEQNGEKIVKFARGPRAKVSPVNDVDVGVYQLMQSEQLLSRKVESLSQEAERCKEEARRACRAGKKQLALRSLKAKQRTEKRIEALHAKLDTVQGILDRIYASQTDQMVFNAYQAGVGALKLSMKDVTVEKAESLVDQIQELCDTQDEVSQTLAGGVTNGLDFDSEELEKELDILLQDTTKEPLDLPDNPRNRHFTNSVPNPRISDAELEAELEKLSLSEGGLVPSSKSPKRQLEPTLKPL
partner: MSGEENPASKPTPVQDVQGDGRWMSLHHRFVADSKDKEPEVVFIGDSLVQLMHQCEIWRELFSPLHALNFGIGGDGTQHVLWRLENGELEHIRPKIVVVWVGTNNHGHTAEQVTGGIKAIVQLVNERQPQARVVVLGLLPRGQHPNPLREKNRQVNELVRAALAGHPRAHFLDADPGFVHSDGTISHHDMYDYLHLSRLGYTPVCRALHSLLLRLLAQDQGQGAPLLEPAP
B3: THAP domain-containing protein 7 (Homo sapiens), Q9BT49 (parent)
chain: MPRHCSAAGCCTRDTRETRNRGISFHRLPKKDNPRRGLWLANCQRLDPSGQGLWDPASEYIYFCSKHFEEDCFELVGISGYHRLKEGAVPTIFESFSKLRRTTKTKGHSYPPGPAEVSRLRRCRKRCSEGRGPTTPFSPPPPADVTCFPVEEASAPATLPASPAGRLEPGLSSPFSDLLGPLGAQADEAGCSAQPSPERQPSPLEPRPVSPSAYMLRLPPPAGAYIQNEHSYQVGSALLWKRRAEAALDALDKAQRQLQACKRREQRLRLRLTKLQQERAREKRAQADARQTLKEHVQDFAMQLSSSMA
partner: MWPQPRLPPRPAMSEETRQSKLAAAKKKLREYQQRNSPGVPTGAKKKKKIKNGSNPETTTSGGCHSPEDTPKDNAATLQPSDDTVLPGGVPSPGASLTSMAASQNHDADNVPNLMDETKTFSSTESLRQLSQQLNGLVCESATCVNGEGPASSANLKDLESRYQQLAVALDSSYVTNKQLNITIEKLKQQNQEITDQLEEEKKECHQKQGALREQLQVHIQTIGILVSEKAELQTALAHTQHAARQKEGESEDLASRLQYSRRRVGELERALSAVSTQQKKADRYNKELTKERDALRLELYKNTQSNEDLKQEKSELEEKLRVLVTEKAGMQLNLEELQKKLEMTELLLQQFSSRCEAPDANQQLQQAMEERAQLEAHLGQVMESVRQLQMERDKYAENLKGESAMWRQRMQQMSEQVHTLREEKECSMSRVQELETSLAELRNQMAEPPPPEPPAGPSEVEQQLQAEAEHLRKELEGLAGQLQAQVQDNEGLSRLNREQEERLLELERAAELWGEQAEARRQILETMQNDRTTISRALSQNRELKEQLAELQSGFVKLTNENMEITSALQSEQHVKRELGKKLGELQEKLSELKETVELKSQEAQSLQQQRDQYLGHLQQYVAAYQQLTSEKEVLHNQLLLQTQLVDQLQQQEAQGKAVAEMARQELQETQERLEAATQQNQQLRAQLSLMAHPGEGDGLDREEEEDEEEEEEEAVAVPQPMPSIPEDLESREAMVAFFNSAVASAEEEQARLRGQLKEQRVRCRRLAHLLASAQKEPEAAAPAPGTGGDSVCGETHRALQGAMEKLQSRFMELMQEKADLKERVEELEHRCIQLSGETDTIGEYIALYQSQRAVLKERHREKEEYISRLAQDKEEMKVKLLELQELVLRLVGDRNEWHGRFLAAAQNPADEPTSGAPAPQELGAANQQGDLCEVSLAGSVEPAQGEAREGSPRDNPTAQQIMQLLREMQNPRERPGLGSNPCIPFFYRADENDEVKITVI
B4: Zinc finger CCHC domain-containing protein 10 (Homo sapiens), Q8TBK6 (parent)
chain: MATPMHRLIARRQAFDTELQPVKTFWILIQPSIVISEANKQHVRCQKCLEFGHWTYECTGKRKYLHRPSRTAELKKALKEKENRLLLQQSIGETNVERKAKKKRSKSVTSSSSSSSDSSASDSSSESEETSTSSSSEDSDTDESSSSSSSSASSTTSSSSSDSDSDSSSSSSSSTSTDSSSDDEPPKKKKKK

Variants of B1 are the subject of the first experiment. Conditions: with sh3r2_human SH3RF2, Q8TEC5.
For the variant A89V, the “effect of a mutation on the interaction” value is given as “with no effect”.

The variants in the next experiment derive from B2. The note with it: with pa1b3_human PAFAH1B3, Q15102.
As to R228C, the “effect of a mutation on the interaction” value is given as “with no effect”.

In the next experiment the parent is B3. Conditions: with goga2_human GOLGA2, Q08379.
In the case of E168D, the “effect of a mutation on the interaction” value was “with no effect”.

In a further experiment the parent is B4. The note with it: with cep70_human CEP70, Q8NHQ1.
cep70_human CEP70, Q8NHQ1, sequence (Q8NHQ1 whole entry): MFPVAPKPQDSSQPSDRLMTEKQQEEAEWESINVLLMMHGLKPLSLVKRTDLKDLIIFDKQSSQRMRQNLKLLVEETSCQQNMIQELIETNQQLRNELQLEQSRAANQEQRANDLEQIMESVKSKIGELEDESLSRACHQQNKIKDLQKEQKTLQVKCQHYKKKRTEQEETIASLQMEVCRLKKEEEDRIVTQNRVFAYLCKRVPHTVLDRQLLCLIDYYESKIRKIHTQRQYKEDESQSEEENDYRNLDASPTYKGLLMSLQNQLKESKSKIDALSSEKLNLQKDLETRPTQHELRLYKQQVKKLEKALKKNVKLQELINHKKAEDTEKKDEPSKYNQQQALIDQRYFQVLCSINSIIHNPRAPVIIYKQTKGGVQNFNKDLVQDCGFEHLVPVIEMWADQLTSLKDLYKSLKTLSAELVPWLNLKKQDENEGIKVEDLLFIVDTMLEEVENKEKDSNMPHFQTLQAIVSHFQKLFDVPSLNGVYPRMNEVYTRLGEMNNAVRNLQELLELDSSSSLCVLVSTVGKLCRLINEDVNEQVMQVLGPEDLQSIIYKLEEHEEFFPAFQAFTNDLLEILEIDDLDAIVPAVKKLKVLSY
In the case of S153P, the “effect of a mutation on the interaction” value is on record as “with no effect”.

Another experiment covers variants of B4. Conditions: with dzip3_human DZIP3, Q86Y13.
dzip3_human DZIP3, Q86Y13, sequence (Q86Y13 whole entry): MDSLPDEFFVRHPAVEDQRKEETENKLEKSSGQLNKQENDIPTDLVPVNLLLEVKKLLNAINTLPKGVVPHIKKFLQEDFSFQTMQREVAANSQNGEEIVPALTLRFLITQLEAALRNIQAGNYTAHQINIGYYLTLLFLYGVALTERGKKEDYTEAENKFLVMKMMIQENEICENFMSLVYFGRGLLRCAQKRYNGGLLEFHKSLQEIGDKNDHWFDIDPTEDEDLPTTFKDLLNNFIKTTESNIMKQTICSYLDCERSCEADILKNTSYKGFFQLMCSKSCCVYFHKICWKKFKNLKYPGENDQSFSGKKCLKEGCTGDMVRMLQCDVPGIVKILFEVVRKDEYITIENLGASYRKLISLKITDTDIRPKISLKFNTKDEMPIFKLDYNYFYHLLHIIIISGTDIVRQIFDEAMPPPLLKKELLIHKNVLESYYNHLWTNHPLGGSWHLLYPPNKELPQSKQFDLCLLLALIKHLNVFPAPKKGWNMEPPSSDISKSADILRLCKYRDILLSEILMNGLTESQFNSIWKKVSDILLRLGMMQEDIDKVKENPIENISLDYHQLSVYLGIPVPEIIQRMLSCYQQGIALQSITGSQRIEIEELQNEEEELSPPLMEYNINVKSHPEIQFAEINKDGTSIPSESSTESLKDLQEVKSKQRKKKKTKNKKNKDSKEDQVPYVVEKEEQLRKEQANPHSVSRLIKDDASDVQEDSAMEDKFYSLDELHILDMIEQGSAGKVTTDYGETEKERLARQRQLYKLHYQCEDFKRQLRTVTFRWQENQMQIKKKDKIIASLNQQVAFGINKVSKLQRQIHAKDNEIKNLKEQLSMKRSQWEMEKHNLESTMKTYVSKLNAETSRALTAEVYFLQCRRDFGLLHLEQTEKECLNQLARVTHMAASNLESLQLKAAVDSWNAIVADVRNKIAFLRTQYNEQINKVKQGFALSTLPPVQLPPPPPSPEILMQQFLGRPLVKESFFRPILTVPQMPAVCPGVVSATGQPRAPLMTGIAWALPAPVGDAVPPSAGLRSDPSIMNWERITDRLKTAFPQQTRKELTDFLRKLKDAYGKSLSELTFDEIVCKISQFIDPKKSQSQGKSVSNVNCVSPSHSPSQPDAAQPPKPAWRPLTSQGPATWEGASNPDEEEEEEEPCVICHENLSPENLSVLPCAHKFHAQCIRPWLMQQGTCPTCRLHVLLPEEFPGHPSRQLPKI
For S153P, the “effect of a mutation on the interaction” value is “with no effect”.
